Target: T1, FcεRIα (human, UniProt P12319 26-201)
T1 chain: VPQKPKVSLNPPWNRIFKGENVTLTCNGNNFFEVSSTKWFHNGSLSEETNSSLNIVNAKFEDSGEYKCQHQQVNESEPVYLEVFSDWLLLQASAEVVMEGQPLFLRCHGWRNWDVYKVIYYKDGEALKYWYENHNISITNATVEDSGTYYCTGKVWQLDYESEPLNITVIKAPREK
Assay: SPR; mammalian derived

Kd: 2.26 nM
B1: IgE-R419N-Fc3-4 (other)
chain: CADSNPRGVSAYLSRPSPFDLFIRKSPTITCLVVDLAPSKGTVNLTWSRASGKPVNHSTRKEEKQRNGTLTVTSTLPVGTRDWIEGETYQCNVTHPHLPRALMRSTTKTSGPRAAPEVYAFATPEWPGSRDKRTLACLIQNFMPEDISVQWLHNEVQLPDARHSTTQPRKTKGSGFFVFSRLEVTRAEWEQKDEFICRAVHEAASPSQTVQRAVSVNP
modifications: additional N-linked glycan at N419 (Asn-92 of SEQ ID NO: 2)

— patent US20180273626A1 (published 2018)
